From the supplement of paper PMC10567573

B1: MGC16075 (parent)
chain: AGSRQALSFEVPPCNYDPEKWIQ
B2: FAM50A (parent)
chain: KKREKQREQMEQMKQRIAEENIMK

Variants of: B1
Assay: protein stability index of a GFP-peptide fusion (GPS, HEK-293T) (PSI 1-6); higher = more stable
Settings: c terminus: native
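Note: lentivirally expressed fusions sorted by FACS into six bins by GFP to DsRed ratio, PSI derived from sequencing read proportions per bin multiplied by bin number.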

Protein stability index, by site and new letter:
R4: M 3.08 | T 2.14 | Q 1.87 | K 1.72 | C 1.57 | I 2.7 | D 2.41 | Y 1.22 | E 1.83 | S 2.21 | A 2.66 | N 1.98 | F 2.41 | H 2.67 | G 1.39 | W 3.74 | L 2.53 | P 2.77 | V 2.61
S8: C 2.6 | G 1.83 | N 1.91 | T 3.31 | Q 1.26 | L 1.98 | F 2.92 | K 2.09 | I 1.59 | Y 3.25 | A 1.79 | V 1.54 | E 3.24 | R 1.89 | H 2.05 | W 2.05 | P 1.91 | D 2.32
L7: Q 2.57 | M 1.86 | Y 1.76 | T 2.42 | F 3.58 | A 2.09 | P 1.26 | C 2.75 | I 2.07 | S 2.11 | V 1.78 | W 2.77 | N 2.72 | R 2.5 | E 3.23 | G 2.06 | H 2.33 | D 2.45 | K 1.82
A6: R 2.29 | K 2.47 | V 2.59 | C 2.03 | S 1.6 | T 1.53 | D 2.91 | E 1.92 | P 1.56 | Q 1.99 | F 2.46 | M 2.98 | L 3.71 | H 1.71 | G 1.03 | I 3.05 | N 2.16 | W 3.24
S3: P 2.18 | V 1.27 | A 1.67 | W 2.7 | E 1.28 | I 1.99 | K 2.32 | H 2.44 | L 1.93 | Y 1.28 | M 1.92 | N 1.59 | Q 1.6 | G 2.88 | C 1.52 | D 1.86 | T 1.79 | R 1.57 | F 4.6
A1: T 2.09 | E 2.19 | G 1.68 | N 2.23 | D 2.9 | R 2.04 | P 2.5 | Y 2.8 | M 1.25 | F 3.97 | Q 2.17 | H 1.82 | W 3.29 | L 1.22 | K 2.18 | I 1.9 | S 1.46 | C 1.19
F9: E 3.49 | I 2.07 | R 2.78 | P 3.09 | H 2.86 | M 2.29 | V 2.57 | Y 2 | Q 3.05 | A 2.63 | W 2.5 | G 3.14 | C 2.57 | K 3.19 | L 2.48 | N 3.75 | T 2.79 | S 2.77 | D 3.05
G2: F 2.77 | S 1.75 | W 1.68 | T 1.95 | I 2.37 | V 1.97 | K 2 | H 2.4 | Q 2.2 | A 1.77 | L 2.27 | Y 2.51 | M 2.88 | P 1.94 | E 1.48 | D 1.93 | N 2.37 | R 2.58
Q5: N 1.82 | K 1.3 | V 2.35 | W 4.32 | Y 2.68 | G 2.03 | P 1.47 | M 1.72 | A 1.8 | R 1.84 | E 3.29 | H 1.82 | S 1.48 | D 1.52 | T 2.12 | F 3.99
E10: M 2.56 | I 2.29 | D 2.6 | K 1.67 | A 3.25 | G 1.83 | C 2.27 | H 3.09

Variants of: B2
Assay: as above
Settings: c terminus: a fixed tail appended

Protein stability index of substitutions, site by site:
R16: W 3.94 | N 4.67 | M 4.89 | V 5.02 | T 5.01 | L 4.51 | Y 5.15 | S 5.52 | Q 4.97 | P 5.19
E20: Y 3.62 | T 4.85 | W 3.47 | S 3.37 | H 4.39 | M 3.79 | I 4 | R 4.48 | Q 4.17 | G 4.34 | V 3.74 | L 3.84 | N 4.44 | P 4.8 | C 4.53 | D 4.85 | A 4.47 | F 3.79 | K 3.96
A18: N 4.93 | L 4.72 | G 4.64 | T 4.59 | R 4.39 | V 4.69 | Q 5.31 | W 4.09 | F 4.84 | E 4.62 | I 4.36 | H 4.19 | D 5.35 | P 4.79 | C 4.35 | Y 4.43 | M 4.12 | K 3.97 | S 4.78
I17: W 4.25 | R 4.77 | H 5.02 | S 5.3 | T 5.3 | D 5.3 | L 4.92 | M 4.87 | G 5.41 | K 4.25 | P 5.52 | V 4.87 | E 5.1 | A 5.39 | Y 4.46 | N 5.2 | Q 5.44 | F 5.12 | C 4.37
K24: A 4.33 | C 5.14 | N 4.77 | T 4.95 | W 3.77 | V 4.82 | P 4.46 | H 4.97 | M 5.03 | I 4.35 | S 4.88 | E 4.85 | G 4.99 | R 4.16 | Q 4.86 | F 4.39 | D 5.12 | Y 4.24 | L 4.13
N21: Y 4.41 | G 4.75 | K 5.35 | D 5.11 | S 4.75 | Q 5.48 | R 4.35 | F 4.31 | E 5.12 | L 3.99 | T 4.77 | C 4.63 | I 4.17 | M 4.64 | H 4.46 | W 3.91 | A 4.73 | V 4.03 | P 4.85
M23: L 4.49 | S 5.28 | N 4.66 | C 4.83 | H 4.89 | P 5.46 | A 4.63 | V 5.27 | E 5.25 | W 4.02 | G 5 | F 4.32 | T 4.93 | Y 4.75 | K 4.99 | I 4.04 | Q 5.45 | R 3.3 | D 5.14
E19: C 3.9 | G 4.78 | K 5.08 | M 4.09 | N 4.34 | T 4.78 | A 4.63 | D 4.33 | W 3.66 | I 2.92 | P 4.19 | Y 4.38 | L 3.22 | R 4.98 | H 4.6 | S 4.33 | Q 4.72 | F 3.71 | V 3.47
I22: K 4.16 | G 5.2 | A 4.48 | Y 4.18 | R 4.92 | L 4.91 | W 4.63 | H 4.8 | N 5.12 | D 5.54 | T 5.46 | Q 4.75 | M 5.07 | E 5.68 | S 5.33 | P 5.12 | V 4.85 | C 5.22 | F 3.93
